Data: patent publication US20250277020A1 (Boehringer Ingelheim, published 2025)
One block for each binder: values may come before it.

Molecular target: T1, Full-length human CTGF (human, UniProt P29279 27-349)
T1 construct: Corresponds to NCBI NP_001892.1 with the signal peptide omitted; purchased from R&D Systems; also called hCTGF full length; full length CTGF
T1 sequence: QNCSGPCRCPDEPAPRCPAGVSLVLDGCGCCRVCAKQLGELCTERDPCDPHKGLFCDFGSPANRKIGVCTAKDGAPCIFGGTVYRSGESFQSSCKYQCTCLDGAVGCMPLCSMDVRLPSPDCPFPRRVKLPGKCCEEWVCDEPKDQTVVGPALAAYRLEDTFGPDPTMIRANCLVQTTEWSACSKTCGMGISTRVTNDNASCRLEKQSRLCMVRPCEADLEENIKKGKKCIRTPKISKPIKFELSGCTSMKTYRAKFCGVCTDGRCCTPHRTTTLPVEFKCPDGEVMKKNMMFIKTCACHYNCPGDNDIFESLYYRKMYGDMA
Assay: SPR, full length CTGF

B1: A54 (antibody, human IgG1, kappa, L234A L235A, V domains shown)
VH: EVQLVESGGGLVQPGGSLRLSCAASGFTFSDYYMAWVRQAPGKGLEWVANINYEGSRTDLLDSLKSRFTISRDNAKNSVYLQMNSLRAEDTAVYYCARDTSRGSYFDVWGAGTTVTVSS
VL: VVMTQTPLSLPVSLGDQASISCRSSQSIVHYNENTYLEWYLQKPGQSPQLLIYKVSNRFSGVPDRFSGSGSGTDFTLKISRVEAEDLGVYYCFQGSHFPLTFGQGTKLEIKR
Kd: 0.31 nM

B2: A63 (antibody, human IgG1, kappa, L234A L235A, V domains shown)
VH: EVQLVESGGGLVQPGGSLRLSCAASGFTFSDYYMAWVRQAPGKGLEWVANINYDGSRTDLLESLKSRFTISRDNAKNSVYLQMNSLRAEDTAVYYCARDTSRGSYFDVWGAGTTVTVSS
VL: VVMTQTPLSLPVSLGDQASISCRSSQSIVHYNANTYLEWYLQKPGQSPQLLIYKVSNRFSGVPDRFSGSGSGTDFTLKISRVEAEDLGVYYCFQGSHFPLTFGQGTKLEIKR
Kd: 0.34 nM

B3: A73 (antibody, human IgG1, kappa, L234A L235A, V domains shown)
VH: EVQLVESGGGLVQPGGSLRLSCAASGFTFSDYYMAWVRQAPGKGLEWVANINYEGSRTDLLESLKSRFTISRDNAKNSVYLQMNSLRAEDTAVYYCARDTSRGSYFDVWGAGTTVTVSS
VL: VVMTQTPLSLPVSLGDQASISCRSSQSIVHYNGKTYLEWYLQKPGQSPQLLIYKVSNRFSGVPDRFSGSGSGTDFTLKISRVEAEDLGVYYCFQGSHFPLTFGQGTKLEIKR
Kd: 0.58 nM

B4: A72 (antibody, human IgG1, kappa, L234A L235A)
light: VVMTQTPLSLPVSLGDQASISCRSSQSIVHYNTNTYLEWYLQKPGQSPQLLIYKVSNRFSGVPDRFSGSGSGTDFTLKISRVEAEDLGVYYCFQGSHFPLTFGQGTKLEIKRTVAAPSVFIFPPSDEQLKSGTASVVCLLNNFYPREAKVQWKVDNALQSGNSQESVTEQDSKDSTYSLSSTLTLSKADYEKHKVYACEVTHQGLSSPVTKSFNRGEC
heavy: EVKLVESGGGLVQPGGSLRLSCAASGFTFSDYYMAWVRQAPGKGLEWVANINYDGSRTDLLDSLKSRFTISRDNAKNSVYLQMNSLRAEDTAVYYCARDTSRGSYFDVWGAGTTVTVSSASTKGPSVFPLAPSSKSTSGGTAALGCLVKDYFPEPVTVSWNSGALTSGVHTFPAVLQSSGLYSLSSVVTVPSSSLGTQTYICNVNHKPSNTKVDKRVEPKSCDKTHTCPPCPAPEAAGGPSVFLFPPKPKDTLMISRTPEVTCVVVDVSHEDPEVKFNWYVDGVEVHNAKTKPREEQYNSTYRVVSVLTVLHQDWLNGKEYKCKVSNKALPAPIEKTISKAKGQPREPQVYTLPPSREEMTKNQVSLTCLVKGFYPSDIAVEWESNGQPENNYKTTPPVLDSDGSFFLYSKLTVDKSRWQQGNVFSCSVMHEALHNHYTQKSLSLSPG
Kd: 0.27 nM

B6: A69 (antibody, human IgG1, kappa, L234A L235A)
light: VVMTQTPLSLPVSLGDQASISCRSSQSIVHYNTNTYLEWYLQKPGQSPQLLIYKVSNRFSGVPDRFSGSGSGTDFTLKISRVEAEDLGVYYCFQGSHFPLTFGQGTKLEIKRTVAAPSVFIFPPSDEQLKSGTASVVCLLNNFYPREAKVQWKVDNALQSGNSQESVTEQDSKDSTYSLSSTLTLSKADYEKHKVYACEVTHQGLSSPVTKSFNRGEC
heavy: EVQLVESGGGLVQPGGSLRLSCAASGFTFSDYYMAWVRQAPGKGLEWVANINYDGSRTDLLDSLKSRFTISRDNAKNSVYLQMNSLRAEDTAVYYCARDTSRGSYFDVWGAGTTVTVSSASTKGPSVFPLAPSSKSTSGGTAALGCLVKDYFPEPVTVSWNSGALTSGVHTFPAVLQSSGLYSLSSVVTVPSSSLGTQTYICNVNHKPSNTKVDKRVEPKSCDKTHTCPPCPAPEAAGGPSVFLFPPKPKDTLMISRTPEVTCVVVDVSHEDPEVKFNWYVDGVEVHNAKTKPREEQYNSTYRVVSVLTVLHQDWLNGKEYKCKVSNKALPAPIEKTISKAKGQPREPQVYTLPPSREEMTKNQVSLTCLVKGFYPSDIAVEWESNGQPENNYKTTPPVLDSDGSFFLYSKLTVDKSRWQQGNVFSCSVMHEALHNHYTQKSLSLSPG
Kd: 0.28 nM

B9: A66 (antibody, human IgG1, kappa, L234A L235A, V domains shown)
VH: EVQLVESGGGLVQPGGSLRLSCAASGFTFSDYYMAWVRQAPGKGLEWVANINYYGSRTDLLESLKSRFTISRDNAKNSVYLQMNSLRAEDTAVYYCARDTSRGSYFDVWGAGTTVTVSS
VL: VVMTQTPLSLPVSLGDQASISCRSSQSIVHYNTNTYLEWYLQKPGQSPQLLIYKVSNRFSGVPDRFSGSGSGTDFTLKISRVEAEDLGVYYCFQGSHFPLTFGQGTKLEIKR
Kd: 0.25 nM

B10: A62 (antibody, human IgG1, kappa, L234A L235A, V domains shown)
VH: EVQLVESGGGLVQPGGSLRLSCAASGFTFSDYYMAWVRQAPGKGLEWVANINYEGSRTDLLDSLKSRFTISRDNAKNSVYLQMNSLRAEDTAVYYCARDTSRGSYFDVWGAGTTVTVSS
VL: VVMTQTPLSLPVSLGDQASISCRSSQSIVHYNANTYLEWYLQKPGQSPQLLIYKVSNRFSGVPDRFSGSGSGTDFTLKISRVEAEDLGVYYCFQGSHFPLTFGQGTKLEIKR
Kd: 0.35 nM

B12: A65 (antibody, human IgG1, kappa, L234A L235A, V domains shown)
VH: EVQLVESGGGLVQPGGSLRLSCAASGFTFSDYYMAWVRQAPGKGLEWVANINYEGSRTDLLESLKSRFTISRDNAKNSVYLQMNSLRAEDTAVYYCARDTSRGSYFDVWGAGTTVTVSS
VL: VVMTQTPLSLPVSLGDQASISCRSSQSIVHYNTNTYLEWYLQKPGQSPQLLIYKVSNRFSGVPDRFSGSGSGTDFTLKISRVEAEDLGVYYCFQGSHFPLTFGQGTKLEIKR
Kd: 0.27 nM

B13: A60 (antibody, human IgG1, kappa, L234A L235A, V domains shown)
VH: EVQLVESGGGLVQPGGSLRLSCAASGFTFSDYYMAWVRQAPGKGLEWVANINYYGSRTDLLASLKSRFTISRDNAKNSVYLQMNSLRAEDTAVYYCARDTSRGSYFDVWGAGTTVTVSS
VL: VVMTQTPLSLPVSLGDQASISCRSSQSIVHYNANTYLEWYLQKPGQSPQLLIYKVSNRFSGVPDRFSGSGSGTDFTLKISRVEAEDLGVYYCFQGSHFPLTFGQGTKLEIKR
Kd: 0.3 nM

B14: A71 (antibody, human IgG1, kappa, L234A L235A, V domains shown)
VH: EVQLVESGGGLVQPGGSLRLSCAASGFTFSDYYMAWVRQAPGKGLEWVANINYDGSRTDLLESLKSRFTISRDNAKNSVYLQMNSLRAEDTAVYYCARDTSRGSYFDVWGAGTTVTVSS
VL: VVMTQTPLSLPVSLGDQASISCRSSQSIVHYNTNTYLEWYLQKPGQSPQLLIYKVSNRFSGVPDRFSGSGSGTDFTLKISRVEAEDLGVYYCFQGSHFPLTFGQGTKLEIKR
Kd: 0.28 nM

B15: A61 (antibody, human IgG1, kappa, L234A L235A)
light: VVMTQTPLSLPVSLGDQASISCRSSQSIVHYNANTYLEWYLQKPGQSPQLLIYKVSNRFSGVPDRFSGSGSGTDFTLKISRVEAEDLGVYYCFQGSHFPLTFGQGTKLEIKRTVAAPSVFIFPPSDEQLKSGTASVVCLLNNFYPREAKVQWKVDNALQSGNSQESVTEQDSKDSTYSLSSTLTLSKADYEKHKVYACEVTHQGLSSPVTKSFNRGEC
heavy: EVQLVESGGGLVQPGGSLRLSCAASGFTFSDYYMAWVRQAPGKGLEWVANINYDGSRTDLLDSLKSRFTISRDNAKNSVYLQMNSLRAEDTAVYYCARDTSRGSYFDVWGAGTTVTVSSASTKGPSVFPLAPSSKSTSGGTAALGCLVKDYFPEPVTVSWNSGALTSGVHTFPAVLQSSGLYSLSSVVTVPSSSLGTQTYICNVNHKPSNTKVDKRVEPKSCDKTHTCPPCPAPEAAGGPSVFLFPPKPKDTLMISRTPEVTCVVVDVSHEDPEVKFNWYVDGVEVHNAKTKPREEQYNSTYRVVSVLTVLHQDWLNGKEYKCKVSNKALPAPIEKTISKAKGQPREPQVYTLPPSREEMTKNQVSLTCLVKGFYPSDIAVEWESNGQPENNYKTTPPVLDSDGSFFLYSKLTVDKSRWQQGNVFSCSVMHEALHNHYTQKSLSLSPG
Kd: 0.35 nM

B16: A64 (antibody, human IgG1, kappa, L234A L235A)
light: VVMTQTPLSLPVSLGDQASISCRSSQSIVHYNANTYLEWYLQKPGQSPQLLIYKVSNRFSGVPDRFSGSGSGTDFTLKISRVEAEDLGVYYCFQGSHFPLTFGQGTKLEIKRTVAAPSVFIFPPSDEQLKSGTASVVCLLNNFYPREAKVQWKVDNALQSGNSQESVTEQDSKDSTYSLSSTLTLSKADYEKHKVYACEVTHQGLSSPVTKSFNRGEC
heavy: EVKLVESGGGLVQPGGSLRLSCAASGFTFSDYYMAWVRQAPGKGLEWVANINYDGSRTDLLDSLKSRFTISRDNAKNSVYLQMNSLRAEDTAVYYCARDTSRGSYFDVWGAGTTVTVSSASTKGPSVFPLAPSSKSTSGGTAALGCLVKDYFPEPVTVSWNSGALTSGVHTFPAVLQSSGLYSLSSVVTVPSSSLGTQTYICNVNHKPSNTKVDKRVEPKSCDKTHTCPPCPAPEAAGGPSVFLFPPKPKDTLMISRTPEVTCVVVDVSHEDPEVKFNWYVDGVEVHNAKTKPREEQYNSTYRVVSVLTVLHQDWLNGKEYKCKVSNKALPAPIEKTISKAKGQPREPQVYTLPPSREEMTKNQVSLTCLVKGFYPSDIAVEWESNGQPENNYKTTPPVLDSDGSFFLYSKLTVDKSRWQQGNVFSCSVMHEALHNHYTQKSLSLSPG
Kd: 0.32 nM

B19: A68 (antibody, human IgG1, kappa, L234A L235A, V domains shown)
VH: EVQLVESGGGLVQPGGSLRLSCAASGFTFSDYYMAWVRQAPGKGLEWVANINYYGSRTDLLASLKSRFTISRDNAKNSVYLQMNSLRAEDTAVYYCARDTSRGSYFDVWGAGTTVTVSS
VL: VVMTQTPLSLPVSLGDQASISCRSSQSIVHYNTNTYLEWYLQKPGQSPQLLIYKVSNRFSGVPDRFSGSGSGTDFTLKISRVEAEDLGVYYCFQGSHFPLTFGQGTKLEIKR
Kd: 0.15 nM

Now from value to binder:

Kd: 0.24 nM
B5: A67 (antibody, human IgG1, kappa, L234A L235A, V domains shown)
VH: EVQLVESGGGLVQPGGSLRLSCAASGFTFSDYYMAWVRQAPGKGLEWVANINYEGSRTDLLASLKSRFTISRDNAKNSVYLQMNSLRAEDTAVYYCARDTSRGSYFDVWGAGTTVTVSS
VL: VVMTQTPLSLPVSLGDQASISCRSSQSIVHYNTNTYLEWYLQKPGQSPQLLIYKVSNRFSGVPDRFSGSGSGTDFTLKISRVEAEDLGVYYCFQGSHFPLTFGQGTKLEIKR

Kd: 0.27 nM
B7: A70 (antibody, human IgG1, kappa, L234A L235A, V domains shown)
VH: EVQLVESGGGLVQPGGSLRLSCAASGFTFSDYYMAWVRQAPGKGLEWVANINYEGSRTDLLDSLKSRFTISRDNAKNSVYLQMNSLRAEDTAVYYCARDTSRGSYFDVWGAGTTVTVSS
VL: VVMTQTPLSLPVSLGDQASISCRSSQSIVHYNTNTYLEWYLQKPGQSPQLLIYKVSNRFSGVPDRFSGSGSGTDFTLKISRVEAEDLGVYYCFQGSHFPLTFGQGTKLEIKR

Kd: 0.2 nM
B8: A74 (antibody, human IgG1, kappa, L234A L235A, V domains shown)
VH: EVQLVESGGGLVQPGGSLRLSCAASGFTFSDYYMAWVRQAPGKGLEWVANINYYGSRTDLLESLKSRFTISRDNAKNSVYLQMNSLRAEDTAVYYCARDTSRGSYFDVWGAGTTVTVSS
VL: VVMTQTPLSLPVSLGDQASISCRSSQSIVHYNGKTYLEWYLQKPGQSPQLLIYKVSNRFSGVPDRFSGSGSGTDFTLKISRVEAEDLGVYYCFQGSHFPLTFGQGTKLEIKR

Kd: 0.27 nM
B11: A59 (antibody, human IgG1, kappa, L234A L235A, V domains shown)
VH: EVQLVESGGGLVQPGGSLRLSCAASGFTFSDYYMAWVRQAPGKGLEWVANINYEGSRTDLLASLKSRFTISRDNAKNSVYLQMNSLRAEDTAVYYCARDTSRGSYFDVWGAGTTVTVSS
VL: VVMTQTPLSLPVSLGDQASISCRSSQSIVHYNANTYLEWYLQKPGQSPQLLIYKVSNRFSGVPDRFSGSGSGTDFTLKISRVEAEDLGVYYCFQGSHFPLTFGQGTKLEIKR

Kd: 0.35 nM
B17: A55 (antibody, human IgG1, kappa, L234A L235A, V domains shown)
VH: EVQLVESGGGLVQPGGSLRLSCAASGFTFSDYYMAWVRQAPGKGLEWVANINYDGSRTDLLESLKSRFTISRDNAKNSVYLQMNSLRAEDTAVYYCARDTSRGSYFDVWGAGTTVTVSS
VL: VVMTQTPLSLPVSLGDQASISCRSSQSIVHYNENTYLEWYLQKPGQSPQLLIYKVSNRFSGVPDRFSGSGSGTDFTLKISRVEAEDLGVYYCFQGSHFPLTFGQGTKLEIKR

Kd: 0.31 nM
B18: A56 (antibody, human IgG1, kappa, L234A L235A)
light: VVMTQTPLSLPVSLGDQASISCRSSQSIVHYNENTYLEWYLQKPGQSPQLLIYKVSNRFSGVPDRFSGSGSGTDFTLKISRVEAEDLGVYYCFQGSHFPLTFGQGTKLEIKRTVAAPSVFIFPPSDEQLKSGTASVVCLLNNFYPREAKVQWKVDNALQSGNSQESVTEQDSKDSTYSLSSTLTLSKADYEKHKVYACEVTHQGLSSPVTKSFNRGEC
heavy: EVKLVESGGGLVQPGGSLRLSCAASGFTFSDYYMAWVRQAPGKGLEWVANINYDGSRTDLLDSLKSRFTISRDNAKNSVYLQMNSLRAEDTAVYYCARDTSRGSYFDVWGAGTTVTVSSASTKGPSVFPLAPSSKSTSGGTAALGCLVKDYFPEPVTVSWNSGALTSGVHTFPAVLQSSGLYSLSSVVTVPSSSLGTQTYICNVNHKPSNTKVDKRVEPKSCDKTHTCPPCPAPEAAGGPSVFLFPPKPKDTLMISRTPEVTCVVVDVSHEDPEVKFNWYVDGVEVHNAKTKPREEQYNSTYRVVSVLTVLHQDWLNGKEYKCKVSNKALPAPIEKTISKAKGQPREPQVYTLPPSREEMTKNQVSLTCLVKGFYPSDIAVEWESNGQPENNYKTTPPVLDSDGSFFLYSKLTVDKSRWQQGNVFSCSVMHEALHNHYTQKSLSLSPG

Kd: 0.3 nM
B20: A58 (antibody, human IgG1, kappa, L234A L235A, V domains shown)
VH: EVQLVESGGGLVQPGGSLRLSCAASGFTFSDYYMAWVRQAPGKGLEWVANINYYGSRTDLLESLKSRFTISRDNAKNSVYLQMNSLRAEDTAVYYCARDTSRGSYFDVWGAGTTVTVSS
VL: VVMTQTPLSLPVSLGDQASISCRSSQSIVHYNANTYLEWYLQKPGQSPQLLIYKVSNRFSGVPDRFSGSGSGTDFTLKISRVEAEDLGVYYCFQGSHFPLTFGQGTKLEIKR

Kd: 0.35 nM
B21: A57 (antibody, human IgG1, kappa, L234A L235A, V domains shown)
VH: EVQLVESGGGLVQPGGSLRLSCAASGFTFSDYYMAWVRQAPGKGLEWVANINYEGSRTDLLESLKSRFTISRDNAKNSVYLQMNSLRAEDTAVYYCARDTSRGSYFDVWGAGTTVTVSS
VL: VVMTQTPLSLPVSLGDQASISCRSSQSIVHYNANTYLEWYLQKPGQSPQLLIYKVSNRFSGVPDRFSGSGSGTDFTLKISRVEAEDLGVYYCFQGSHFPLTFGQGTKLEIKR
